Where no end group is shown, it is not given here.
T1: phosphorylated SNAP-ADAP fusion protein (ADAP amino acids 570-690) (human, UniProt O15117 570-690, phosphotyrosine (in vitro phosphorylation by Fyn kinase, approx. 90% of each phosphorylation site; sites in Table S1); BG-647 dye on the SNAP-tag)
T1 chain: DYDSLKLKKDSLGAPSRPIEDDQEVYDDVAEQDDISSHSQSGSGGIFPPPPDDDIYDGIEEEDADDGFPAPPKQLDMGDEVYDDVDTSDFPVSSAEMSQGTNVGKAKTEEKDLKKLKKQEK

T2: Fyn SH2 domain without biotin (for MST) (UniProt P06241 149-246)
T2 chain: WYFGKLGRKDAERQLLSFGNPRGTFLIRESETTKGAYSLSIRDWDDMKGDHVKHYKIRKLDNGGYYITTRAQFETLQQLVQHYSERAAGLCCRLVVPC

B1: RasaN (N-terminal SH2 domain of Rasa1) without biotin (for MST) (domain or fragment)
chain: WYHGKLDRTIAEERLRQAGKSGSYLIRESDRRPGSFVLSFLSQMNVVNHFRIIAMCGDYYIGGRRFSSLSDLIGYYSHVSCLLKGEKLLYPV
B2: phosphorylated SNAP-YEEI fusion (middle T antigen aa 315-331) (peptide)
chain: THQEEEEPQYEEIPIYL
modifications: not fully specified; also: tyrosine phosphorylation in vitro by Fyn, degree not placed
B3: Rasa1b (Rasa1 sequence 174-447) without biotin (for MST) (domain or fragment)
chain: TAPPTNQWYHGKLDRTIAEERLRQAGKSGSYLIRESDRRPGSFVLSFLSQMNVVNHFRIIAMCGDYYIGGRRFSSLSDLIGYYSHVSCLLKGEKLLYPVAPPEPVEDRRRVRAILPYTKVPDTDEISFLKGDMFIVHNELEDGWMWVTNLRTDEQGLIVEDLVEEVGREEDPHEGKIWFHGKISKQEAYNLLMTVGQVCSFLVRPSDNTPGDYSLYFRTNENIQRFKICPTPNNQFMMGGRYYNSIGDIIDHYRKEQIVEGYYLKEPVPMQDQE
B4: SLP-76 SH2 domain without biotin (for MST) (domain or fragment)
chain: WYVSYITRPEAEAALRKINQDGTFLVRDSSKKTTTNPYVLMVLYKDKVYNIQIRYQKESQVYLLGTGLRGKEDFLSVSDIIDYFRKMPLLLIDGKNRGSRYQCTLTHAA
B5: Lck SH2 domain without biotin (for MST) (domain or fragment)
chain: WFFKNLSRKDAERQLLAPGNTHGSFLIRESESTAGSFSLSVRDFDQNQGEVVKHYKIRNLDNGGFYISPRITFPGLHELVRHYTNASDGLCTRLSRPC
B6: SH2D1A without biotin (for MST) (natural protein)
chain: MDAVAVYHGKISRETGEKLLLATGLDGSYLLRDSESVPGVYCLCVLYHGYIYTYRVSQTETGSWSAETAPGVHKRYFRKIKNLISAFQKPDQGIVIPLQYPVEKKSSARSTQGTTGIREDPDVCLKAP

Experiments:
Assay in all cases: MST
[1] = biological target: T1, phosphorylated SNAP-ADAP fusion protein …
[2] = biological target: B1
[3] = biological target: B3
[4] = biological target: B5
[5] = biological target: T2, Fyn SH2 domain without biotin (for MST)
[6] = biological target: B6

Binder | Kd [1] [nM] | further results
B1 | 142 | 
B2 |  | Kd [2]: 128 nM; Kd [3]: 189 nM; Kd [4]: 595 nM; Kd [5]: 430 nM; Kd [6]: 2340 nM
B3 | 152 | 
B4 | 457 | 
B5 | 1300 | 
B6 | 5730 | 
